Data reported in the RNAGym collection of RNA variant scans (doi:10.1073/pnas.2313332121).

B1: TPR t1 (parent)
chain: GACCAAUCUGCCCUCAGAGCUCGAGAACAUCUUCGGAUGCAGAGGAGGCAGGCUUCGGUGGCGCGAUAGCGCCAACGUCCUCAACCUCCAAUGCAUCCCACCACAUGAUGAUGCCUGAAGAGCCUUGGUUUUUUG

Variants of: B1
Assay: polymerase ribozyme fitness, log enrichment relative to wild type (log ratio); higher = more active; in vitro selection for triplet polymerase activity
In short: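 Both subunits of a heterodimeric triplet polymerase ribozyme were given their own mutant library, built by PCR and transcribed. Each library was annealed with a biotinylated primer, the partner subunit and triplets, incubated frozen at −7 °C, and its extended constructs gel-excised, captured on streptavidin beads and amplified by RT-PCR, all in one round done in triplicate. Fitness is the logarithm of genotype enrichment relative to wild-type enrichment, with replicates averaged by inverse-variance weighting. That logarithm is base 2, and Illumina-sequenced genotypes needed ≥10 input reads and ≥1 read per output.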

Variant | polymerase ribozyme fitness (log ratio)
G44A C79A U125A | -3.2
G42C G48C C79A | -6.14
C3U G44U G45U G63U C88A | -2.78
G44C A95G A118G | -1.3
G57A G58A | -0.357
C40G G48U G69U | -1.67
A2C C11A G60A G69U C89G G122A | -3.67
C13G C64U A83U A95C G110A G120U | -3.89
A37G C56U A100U C102A U116A | -6.14
G71A C73G G110A | -7.06
C62G G113U | -4.24
A103U G110C | -7.11
G61A G110C | -3.29
A2U C15A | -4.12
G48C G71A G110A G120A | -3.66
G44C | -0.805
U14C A66U | -3.21
G61U U106G A108U | -4.45
A46C C101G | -2.34
U59C G93U | -1.12
C22G G61C | -3.76
G44A C72G A119G U125C | -2.76
C4U C56G A111U | -2.42
C34A C86A | -3.67

Variant | polymerase ribozyme fitness (log ratio)
U7G U9A G60U C82U | 0.122
C70U U87C C123G | 2.6
A5G C72U | -0.625
A5C | -0.52
A29U C56U G120C G127A | -2.48
C11G A43C C62U U129C U130G | -3.83
C28U U112G | -1.97
G42C G47U A108C G110A U112A | -7.49
G93A G113U | -3.19
A29G U81C A100U | -3.08
C28G G52A C70U C80A G113C | -7.14
A5U U7C C8U C11U C86A | -1.5
C12U C53G G61C | 0.0604
C13A G110A | -1.4
G71C C99U | -4.28
C13U G57A G110U | -1.9
C8G C31G | -6.18
C49U G61A C79U C97G | -5.31
G48A G63U A84G G128U | -3.63
C53G U81G | -1.16
A29C G63C U78A U92A G120C | -5.6
C4U A27G C62A | -4.35
C22G C70A | -4.66
A43C C73A U81G C86U | -6.91

Variant | polymerase ribozyme fitness (log ratio)
C88A C104U G127A | -1.76
U54G G60A | -4.1
G42A C89U | -1.16
C53A G63U A74U C102G A103C A111G G117C | -6.88
A16U C72G C104U | -1.7
C8G G17U G48A G57U G69U A105U | -2.21
C15U U33G C88G C115G | -6.42
G10A U21G G60A A103C C114A | -5.69
C8G C11A C72U C88U C97U G113U G127C | -4.01
C11U C28U G45U G61U A84U C101A | -5.59
C56A G77C C124A | 1.47
G36U G110C | -4.93
G39U C62U C85A A90G A119U C123G U125G | -1.09
C104U U109G | -3.57
C70U U87G | -0.364
A74G A91C C124G | 0.0731
C12U G45A G51U | -3.98
A29C G77U U81C | -4.43
A41U C56G G69C U92A | -5.43
A27C U81C C124A | -2.25
G36U G69U U96C C101U U126A | -2.59
G48C C115A A121U | 0.474
A6G A83U | -0.371
A29C U33C U55A C86A C124A | -6.12

Variant | polymerase ribozyme fitness (log ratio)
C70A C82U A84C U87C U116A C123G U131C | -1.57
A95C U125A U126G | -1.74
G51A A74G U131A | -1.77
C49A C53G | -0.789
G17U C49U C115U C123G U130A | -4.8
G52C C115A | -1.03
A6G C73U G117C | -2.3
C20U G35U | -5.32
C15U U59G C70U C104A | -4.32
C15A G63U A68G A111G | -7.51
G39U C40A C62U | -2.99
C115U G127A | -3.15
A5U G113A | -1.04
G17U G42A | -3.86
U7C G23U A29G G60U G117A G128U | -6.24
A26U C85U C123A | -3.83
C8G G42C C70G | -5.8
U54A C64U C72U | 0.146
U33C C101A A121U | -4.76
A5U G122A | -0.551
U7A C8A C40U C79G C102U G113C U129G U130A | -7.42
C12U A37U G69A G128U | -5.83
G71U A121C | 1.43
U7G G52U G57C C102A A111C | -2.69

Variant | polymerase ribozyme fitness (log ratio)
C12U G45U G57A G60A U116G | -1.77
G51U U54G C62A G113U | -7.8
G61U C82G C85U A119U | -0.891
C15U C72A C85G C102A | -3.1
C8G G19U C94U | -2.66
C72U C123A | 0.21
C12G U87C | 0.621
C70A U81A | -2.88
G17A U55C G61U G113A U130C | -5.74
A29U G45U G69U | -2.7
C8G G42A C53A G63A U81C C82A C86U C99G A118U | -7.86
G47A C53U A95G | -3.19
C11U A24U C28G C62G A83G G113U U133C | -6.38
A18G A43U G71A | -4.88
A2C C114A | -3.32
C70G G93U | -3.28
G10U C13G G45U C72A A91G C102A A118U C124G U132A U133C | -3.66
C22U G45A C89U A121C C124G U125A | -5.69
U9G G61U | 0.804
A5U A46U G71C U81A | -4.5
A6C G39U G77U G113U C114G | -3.79
C8U G52C U78C G110C | -5.87
G10U A27G | -0.702
G10U C20A G42A G93U C115U | -3.5

Variant | polymerase ribozyme fitness (log ratio)
C13U C62A A118U G122A | -2.35
C12U C22U U33A C124G | -5.71
C62G G63U | -7.04
A103C C123A | -5.15
G61A A74C U112A | -2.06
G10A U21G G44C C80U C123G | -2.04
C15U C72G A100U U130A | -2.29
A27U A95C | -4.26
C79U C86U | -0.175
C11U C49A G107U G113C | -6.14
G44U G61U G110U | -1.97
U78G C86G C101U | -1.51
U78A G113U | -3.98
C12U G36C G45A | -0.823
C4A C8A U9C C82U C114U | -2.35
A2U G110A | -3.63
A118G G120C | -0.275
C49U C114G | -3.71
C11U G35U A111U G122C | -6.28
G57A G71U | -0.925
U9A C40G G71U | -0.173
C12A C15A G47U C62U U78C A83U G120C U133A | -2.07
C20U C64A C98A G117U | -6.4
G107U G117C | -4.7

Variant | polymerase ribozyme fitness (log ratio)
A43U C73U U92G G113A | -2.84
C34G A41C A100C A103C U112A | -6.4
C8A A91G | -0.00436
C56U U129G | -0.409
U21A A91U | -2.43
C11G G35A G60C C98U | -1.01
C15A A18U C53A U112C G127A | -5.64
C12U G36C A46U U112C G127U | 0.627
U7G A27G G48C | -0.78
C15G G57A U132C | -3.99
C49A G107U | -4.61
C34U C85U C102U | -3.64
U7A G35A G71A G77C C124A | -5.19
U9G U21C C70U | -1.31
C3U C15U G63A C101A | -3.66
A5U C123A | 1.2
C12A A16U C56G C124A | -0.00308
U9G C89A A100U U116A | -4.84
C11A C53U C76U C80G G117C | -7.25
C31U C40U G61U G120A | -4.29
U87A C124A | 1.83
C49G A119U | -0.491
A2U A27G U54G C123U | -3.79
